The text below walks through data of doi:10.1101/2022.09.15.508177.

Test [1] concerns the target CTCF (CCCTC-binding factor), full-length, wild type, C-terminal MBP-Flag tag (human) (UniProt P49711).
The target of test [2] is CTCF(Y226A/F228A) (human) (UniProt P49711). The experiment in a line: single-molecule co-localisation on DNA curtains.
The target of test [3] is CTCF truncation mutant that only includes the 11 Zn-fingers (human). The test is described as follows: single-molecule co-localisation on DNA curtains.
Chain of CTCF truncation mutant that only includes the 11 Zn-fingers (human) (P49711 266-577, stated change not applied): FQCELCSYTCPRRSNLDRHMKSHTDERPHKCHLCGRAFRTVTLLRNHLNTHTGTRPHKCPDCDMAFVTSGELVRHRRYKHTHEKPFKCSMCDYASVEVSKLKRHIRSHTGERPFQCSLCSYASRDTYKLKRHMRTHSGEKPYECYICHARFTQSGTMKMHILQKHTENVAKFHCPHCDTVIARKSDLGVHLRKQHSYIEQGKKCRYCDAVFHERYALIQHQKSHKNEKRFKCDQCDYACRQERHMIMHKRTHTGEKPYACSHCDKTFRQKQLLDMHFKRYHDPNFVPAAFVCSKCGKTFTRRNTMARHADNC
The target of test [4] is CTCF (CCCTC-binding factor), full-length, wild type, C-terminal MBP-Flag tag (human) (UniProt P49711). The experiment in a line: single-molecule co-localisation on DNA curtains.

In test [1], “cohesin-NIPBL^C (SMC1, SMC3, RAD21, STAG1 with NIPBL^C), wild type (from UniProt Q14683;Q9UQE7;O60216;Q8WVM7;Q6KC79) (complex)” had a cohesin velocity after non-permissive (CTCF^N) collision of 0.2 bp s^-1. Besides, the cohesin velocity after permissive (CTCF^C) collision in test [1] stood at 1.42 bp s^-1. Also, the percent co-localised in test [2] and in test [3] was below 50% each time.

Take “cohesin-NIPBL^C with STAG1(W337A/F347A) (from UniProt Q14683;Q9UQE7;O60216;Q8WVM7;Q6KC79) (complex)”: the percent of CTCF^N foci that retained cohesin in test [4] was 47%.
